Data reported in patent publication US20200148779A1 (Bristol-Myers Squibb, published 2020).

Molecular target: T1, human-CD40-Fc (human, UniProt P25942 21-193)
T1 construct: generated in house; also called hCD40-Fc; not shown: Fc part of the in-house hCD40-Fc is not described
Assay: SPR, dAb-Fc on immobilized hCD40-Fc, apparent KD (avidity)

T1 sequence (P25942 21-193): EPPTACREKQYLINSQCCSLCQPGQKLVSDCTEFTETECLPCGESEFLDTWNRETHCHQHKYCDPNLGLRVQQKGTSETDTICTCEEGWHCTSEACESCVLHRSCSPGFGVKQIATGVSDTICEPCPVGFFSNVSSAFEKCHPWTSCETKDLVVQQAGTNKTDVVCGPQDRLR

| Kd | Binder |
| --- | --- |
| < 1 nM | 3h56-269-IgG1.1f (Fc fusion) EVQLLESGGGLVQPGGSLRLSCAASGFTFRDYEMWWVRQAPGKGLERVSAINPQGTRTYYADSVKGRFTISRDNSKNTLYLQMNSLRAEDTAVYYCAKLPFRFSDRGQGTLVTVSSASTEPKSCDKTHTCPPCPAPEAEGAPSVFLFPPKPKDTLMISRTPEVTCVVVDVSHEDPEVKFNWYVDGVEVHNAKTKPREEQYNSTYRVVSVLTVLHQDWLNGKEYKCKVSNKALPSSIEKTISKAKGQPREPQVYTLPPSREEMTKNQVSLTCLVKGFYPSDIAVEWESNGQPENNYKTTPPVLDSDGSFFLYSKLTVDKSRWQQGNVFSCSVMHEALHNHYTQKSLSLSPGK |
| < 1 nM | 3h56-269-IgG1.3f (Fc fusion) EVQLLESGGGLVQPGGSLRLSCAASGFTFRDYEMWWVRQAPGKGLERVSAINPQGTRTYYADSVKGRFTISRDNSKNTLYLQMNSLRAEDTAVYYCAKLPFRFSDRGQGTLVTVSSASTEPKSCDKTHTCPPCPAPEAEGAPSVFLFPPKPKDTLMISRTPEVTCVVVDVSHEDPEVKFNWYVDGVEVHNAKTKPREEQYNSTYRVVSVLTVLHQDWLNGKEYKCKVSNKALPAPIEKTISKAKGQPREPQVYTLPPSREEMTKNQVSLTCLVKGFYPSDIAVEWESNGQPENNYKTTPPVLDSDGSFFLYSKLTVDKSRWQQGNVFSCSVMHEALHNHYTQKSLSLSPGK |
